Experimental data reported in patent US9682130B2 (priority 2015, dated 2017).
Several values for one entry are separate records, joined by “and”; a condition that tells them apart may be missing. Equal entries are not always repeated. Where two headings read alike, the source gives them in different places.

Key:
[1] = system: Human Adenovirus 8 (Ad8 strain 13306); experiment: Neutral red lysosomal uptake assay, Adenovirus 8; assay type: cell-based; details: Adenovirus 8, MA-104 cells
Method: To assess in vitro cytotoxicity, both a cytopathic effects of a virus (CPE) regression assay and a neutral red lysosomal uptake cell viability assay was performed essentially as described in, e.g., Repetto, et al., Neutral Red Uptake Assay for the Estimation of Cell Viability/Cytotoxicity, Nat. Protoc. 3: 1125-1131 (2008), the content of which is hereby incorporated by reference in its entirety. Ninety-six-well plates were seeded with MA-104 cells at 1×10^5 cells/mL and incubated overnight at 37° C. with 5% CO2. […] Each dilution was added to 5 wells of a 96-well plate with 80% to 100% confluent cells, and three wells of each dilution were then infected with one of the two test viruses. Two wells remained uninfected as controls for toxicity. Six wells per plate were set aside as uninfected, untreated cell controls, and six wells per plate were infected with no treatment as virus controls. […] Assay plates were incubated at 37° C. with 5% CO2. […] After CPE reduction assay was completed, a neutral red lysosomal uptake assay was conducted by filling each well with 0.011% (m/v) neutral red, a vital stain. The plates then were incubated for about 2 hours at 37° C. in the dark. […] The plates were then read on a spectrophotometer at 540 nm to quantify the neutral red taken up by the healthy cells. […]

[2] = Eye irritation, Draize scale (MMTS), Ad5/NZW rabbit ocular model; assay type: in vivo; details: for Ocular irritation MMTS score, Day 3 / Ocular irritation MMTS score, Day 9 / Ocular irritation class, Day 3 / Ocular irritation class, Day 9: topical both eyes 8x daily
Method: To conduct this in vivo assay, 25 NZW rabbit were anesthetized using the general anesthesia ketamine and xylazine and the topical anesthesia proparacaine. Each rabbit was then topically inoculated with 50 μL of Adenovirus serotype Ad5 (3×10^7 pfu/mL) in both eyes after corneal epithelial scarification (12 cross-hatched strokes of a 25 sterile needle). Eyes were closed and gently rubbed for 5 seconds to ensure contact of the virus on all ocular surfaces. Inoculation of both eyes allowed for the reduction in the number of animals needed without jeopardizing statistical validity. […] All topical solutions (37 μL drops) were instilled with an electronic pipette (EDP; Rainin, Oakland, Calif.) set in the multi-dispense mode. Ocular swabbing to recover adenovirus from tear film and corneal and conjunctival surfaces, after topical anesthesia with proparacaine, was performed at least 1 hour after the final dose on days 0, 1, 3, 4, 5, 7, 9, 11, and 14 after inoculation. The ocular samples from each eye was placed individually into tubes containing 1 mL of medium and were frozen at −70° C. pending viral plaque assay.
The animals were assayed for eye irritation using a Draize scale for ocular lesions. Classification of eye irritation was evaluated for both eyes of each rabbit on day 3 and day 9 using the maximum mean total score (MMTS; Table 4). See, e.g., Kay and Calandra, Interpretation of Eye Irritation Tests, J. Soc. Cos. Chem. 13: 281-289 (1962), the content of which is hereby incorporated by reference in its entirety. The MMTS score used was as follows: 0.0-0.5, Non-Irritating (N); 0.6-2.5, Practically Non-Irritating (PN); 2.6-15.0, Minimally Irritating (M1); 15.1-25.0, Mildly Irritating (M2); 25.1-50.0, Moderately Irritating (M3); 50.1-80.0, Severely Irritating (S); 80.1-100.0, Extremely Irritating (E); and 100.1-110.0, Maximally Irritating (Mx).

[3] = system: Human Adenovirus 5 (AD5 strain NYS #98-1836); experiment: microbe, parasite or virus in culture; assay type: cell-based; details: Adenovirus 5, MA-104 cells
Method: To assess in vitro cytotoxicity, both a cytopathic effects of a virus (CPE) regression assay and a neutral red lysosomal uptake cell viability assay was performed essentially as described in, e.g., Repetto, et al., Neutral Red Uptake Assay for the Estimation of Cell Viability/Cytotoxicity, Nat. Protoc. 3: 1125-1131 (2008), the content of which is hereby incorporated by reference in its entirety. Ninety-six-well plates were seeded with MA-104 cells at 1×10^5 cells/mL and incubated overnight at 37° C. with 5% CO2. […] Each dilution was added to 5 wells of a 96-well plate with 80% to 100% confluent cells, and three wells of each dilution were then infected with one of the two test viruses. Two wells remained uninfected as controls for toxicity. Six wells per plate were set aside as uninfected, untreated cell controls, and six wells per plate were infected with no treatment as virus controls. […] Assay plates were incubated at 37° C. with 5% CO2. […] After CPE reduction assay was completed, a neutral red lysosomal uptake assay was conducted by filling each well with 0.011% (m/v) neutral red, a vital stain. The plates then were incubated for about 2 hours at 37° C. in the dark. The unincorporated neutral red solution was removed from the wells and the incorporated dye was then eluted by adding Sorensen's citrate-buffered ethanol. The plates were then read on a spectrophotometer at 540 nm to quantify the neutral red taken up by the healthy cells. The optical density of test wells was converted to percent of cell control and normalized to the virus controls.
The concentration of test compound required to inhibit CPE by 50% or reduce red uptake into cells by 50% (EC50) was calculated by regression analysis. The toxicity of the compound without virus present was similarly calculated using the uninfected wells treated with test compounds compared with untreated cell controls. The concentration of compound that would cause 50% cytotoxic effects in the absence of virus (CC50) was estimated by linear regression analysis. The selectivity index (SI) is the CC50 divided by EC50.

[4] = system: MA-104 cells; experiment: Toxicity in uninfected wells (CC50); details: for Yield Reduction Assay CC50: yield reduction columns
[5] = system: HIV-1; details: final concentrations that are not cytotoxic; cited from earlier work
[6] = system: A549 cells; experiment: In vitro cytotoxicity, ALAMARBLUE fluorometric stain; assay type: cell-based; details: 2 days
Method: Ophthalmol. Vis. Sci. 50: 5295-5299 (2009), which is hereby incorporated by reference in its entirety.
To assess in vitro cytotoxicity, 96-well plates were seeded with A549 cells at 1×10^5 cells/mL and incubated overnight at 37° C. with 5% CO2. […] After removal of the tissue culture media, 100 μL of each dilution was added to 3 wells of a 96-well plate with 80% to 100% confluent cells. […] Each test and control treatment was incubated on the A549 monolayers for 2 days at 37° C. with 5% CO2. A 100 μL aliquot of the fluorometric stain was then added to each well, and the cells incubated for 1 hour at 37° C. with 5% CO2. The fluorometric stain (ALAMARBLUE®, Invitrogen, Carlsbad, Calif.) acts as a redox indicator that is reduced to a fluorescent form by metabolically active living cells. Fluorescence was then be read with a plate reader (Biotek Synergy 2; Biotek), with a 500/27-nm excitation filter and a 620/40-nm emission filter, at a sensitivity of 35.

[7] = system: MA-104 cells
[8] = system: NFκB; details: small in vitro study; cited from earlier work

B1: Ranpirnase (protein, UniProt P22069 1-104, looked up)
Protein P-30: QDWLTFQKKHITNTRDVDCDNIMSTNLFHCKDKNTFIYSRPEPVKAICKGIIASKNVLTTSEFYLSDCNVTSRPCKYKLKKSTNKFCVTCENQAPVHFVGVGSC
notes: amphibian ribonuclease originally isolated from oocytes and/or early embryos of Rana pipiens; pancreatic ribonuclease (RNase A) superfamily, about 12 kD
[1]
  Neutral Red Assay EC50: <100 µg/mL
[2]; 0.25 μM Ranpirnase
  Eye irritation compared to saline and Cidofovir controls: no eye irritation as compared to both the saline and Cidofovir controls
[2]; 0.25 μM Ranpirnase (group 1C)
  Ocular irritation MMTS score, Day 3: 7.5
  Ocular irritation MMTS score, Day 9: 22.5
  Ocular irritation class, Day 3: M1 (2.6-15.0, Minimally Irritating (M1))
  Ocular irritation class, Day 9: M2 (15.1-25.0, Mildly Irritating (M2))
[2]; 2.5 μM Ranpirnase (group 1B)
  Ocular irritation MMTS score, Day 3: 14.6
  Ocular irritation MMTS score, Day 9: 60.7
  Ocular irritation class, Day 3: M1 (2.6-15.0, Minimally Irritating (M1))
  Ocular irritation class, Day 9: S (50.1-80.0, Severely Irritating (S))
[2]; 25 μM Ranpirnase (group 1A)
  Ocular irritation MMTS score, Day 3: 22.0
  Ocular irritation MMTS score, Day 9: 85.0
  Ocular irritation class, Day 3: M2 (15.1-25.0, Mildly Irritating (M2))
  Ocular irritation class, Day 9: E (80.1-100.0, Extremely Irritating (E))
[2]; 25, 2.5 and 0.25 μM Ranpirnase, Ad5/NZW rabbit ocular model
  Ocular toxicity compared to Saline and CDV controls: dose dependent ocular toxicity
[3]
  Neutral Red Assay EC50: <100 µg/mL
[4]; Adenovirus 5 section
  Neutral Red Assay CC50: 52 µg/mL
  Yield Reduction Assay CC50: 52 µg/mL
[4]; Adenovirus 8 section, CPE scoring
  CPE Reduction Assay CC50: 59 µg/mL
[4]; Adenovirus 8 section
  Neutral Red Assay CC50: 44 µg/mL
  Yield Reduction Assay CC50: 59 µg/mL
[5]
  Inhibition of replication of HIV-1: up to 99.9%
[6]; 0.001 μM, second experiment
  % cytotoxicity, Mean: 3.2%
[6]; 0.001 μM, second experiment, single assays 1-3, 0.001 µM
  % cytotoxicity: 5.7% and 2.3% and 1.6%
[6]; 0.01 μM, second experiment
  % cytotoxicity, Mean: 7.4%
[6]; 0.01 μM, second experiment, single assays 1-3, 0.01 µM
  % cytotoxicity: 8.6% and 11.7% and 7.9%
[6]; 0.1 μM, second experiment
  % cytotoxicity, Mean: 5.8%
[6]; 0.1 μM, second experiment, single assays 1-3, 0.1 µM
  % cytotoxicity: 6.0% and 5.3% and 6.1%
[6]; 1.0 μM, first experiment, single assays 1-3, 1 µM
  % cytotoxicity: 60.9% and 61.3% and 63.7%
[6]; 1.0 μM, second experiment, single assays 1-3, 1 µM
  % cytotoxicity: 11.1% and 14.6% and 18.1%
[6]; 10 μM, first experiment, single assays 1-3, 10 µM
  % cytotoxicity: 65.7% and 66.5% and 67.1%
[6]; 10 μM, second experiment, single assays 1-3, 10 µM
  % cytotoxicity: 29.1% and 32.7% and 37.3%
[6]; 50 μM, first experiment, single assays 1-3, 50 µM
  % cytotoxicity: 75.1% and 74.0%
[6]; 50 μM, second experiment, single assays 1-3, 50 µM
  % cytotoxicity: 86.7% and 86.4%
[7]
  CPE Reduction Assay CC50: 75 µg/mL
[8]
  Translocation of NFκB into the nucleus: inhibits translocation of NFκB into the nucleus
